Biological target: T1, Saccharomyces cerevisiae Rat1-Rai1 complex (Saccharomyces cerevisiae, UniProt Q02792 1-981; P53063 1-387)
T1 sequence (looked up) 1: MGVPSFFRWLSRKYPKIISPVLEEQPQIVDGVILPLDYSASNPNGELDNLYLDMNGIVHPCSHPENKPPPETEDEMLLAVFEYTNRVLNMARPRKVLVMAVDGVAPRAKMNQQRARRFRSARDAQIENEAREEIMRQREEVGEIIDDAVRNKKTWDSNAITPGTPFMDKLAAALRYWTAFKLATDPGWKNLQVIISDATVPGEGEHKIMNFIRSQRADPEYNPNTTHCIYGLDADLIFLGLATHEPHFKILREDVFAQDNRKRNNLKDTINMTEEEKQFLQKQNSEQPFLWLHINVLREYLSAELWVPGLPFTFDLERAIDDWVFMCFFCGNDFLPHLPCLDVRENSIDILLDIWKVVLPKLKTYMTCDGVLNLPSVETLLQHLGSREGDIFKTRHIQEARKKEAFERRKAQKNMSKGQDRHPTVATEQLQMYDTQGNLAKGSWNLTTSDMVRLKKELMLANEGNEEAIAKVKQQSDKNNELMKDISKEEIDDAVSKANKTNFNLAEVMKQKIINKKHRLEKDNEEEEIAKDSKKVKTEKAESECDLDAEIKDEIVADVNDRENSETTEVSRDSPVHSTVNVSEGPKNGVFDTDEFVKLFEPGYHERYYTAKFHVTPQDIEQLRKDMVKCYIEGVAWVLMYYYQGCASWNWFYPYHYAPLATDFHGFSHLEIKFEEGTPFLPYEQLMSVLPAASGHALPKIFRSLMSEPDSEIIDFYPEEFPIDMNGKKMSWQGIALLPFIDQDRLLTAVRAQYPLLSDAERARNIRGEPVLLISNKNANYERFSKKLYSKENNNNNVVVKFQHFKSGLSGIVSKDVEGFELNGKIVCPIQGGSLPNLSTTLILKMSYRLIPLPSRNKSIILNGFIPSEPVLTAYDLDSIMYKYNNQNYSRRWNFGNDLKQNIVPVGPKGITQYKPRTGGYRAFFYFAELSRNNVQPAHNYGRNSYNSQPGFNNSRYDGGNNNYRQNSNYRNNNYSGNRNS
T1 sequence (looked up) 2: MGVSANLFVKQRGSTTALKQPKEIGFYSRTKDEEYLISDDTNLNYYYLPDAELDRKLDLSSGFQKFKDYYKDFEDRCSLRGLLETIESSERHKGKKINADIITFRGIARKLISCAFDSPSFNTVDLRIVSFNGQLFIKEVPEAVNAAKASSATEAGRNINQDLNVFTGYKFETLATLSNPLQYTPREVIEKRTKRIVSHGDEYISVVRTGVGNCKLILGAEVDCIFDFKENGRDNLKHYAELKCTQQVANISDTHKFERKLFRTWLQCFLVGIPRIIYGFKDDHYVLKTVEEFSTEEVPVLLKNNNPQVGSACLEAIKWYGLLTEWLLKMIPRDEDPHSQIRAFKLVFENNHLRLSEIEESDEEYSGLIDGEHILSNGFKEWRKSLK
Experiment: pull-down

- binding result: binds
Binder: SAKDPSRLNKNVDEDNIIPTYEVGDGDDDD (domain or fragment, Saccharomyces cerevisiae, UniProt Q05543 243-272, looked up) [N-terminal 6×His-MBP tagged S. cerevisiae Rtt103 RIS (243-272) wild-type]
